Reference: article PMC5760735, “Isolation and Characterization of Key Genes that Promote Flavonoid Accumulation in Purple-leaf Tea (Camellia sinensis L.)” (Scientific Reports, 2018)

How the values were obtained:
Conditions in all cases: 5 mM UDP-glucose, phosphate buffer pH 7.5, 30 °C, 10 min
[1] = substrate: O=c1c(O)c(-c2ccc(O)c(O)c2)oc2cc(O)cc(O)c12; assay: glucosyltransferase assay of recombinant enzyme, HPLC; format: biochemical, Camellia sinensis
[2] = substrate: O=c1c(O)c(-c2ccc(O)cc2)oc2cc(O)cc(O)c12; assay: as above; format: biochemical, Camellia sinensis
purified protein = substrate: O=c1c(O)c(-c2cc(O)c(O)c(O)c2)oc2cc(O)cc(O)c12; assay: purified protein

B1: CsUGT72AM1 (Camellia sinensis) (protein)
chain: MDSSNSKPHVALLSSPGIGHLIPVLELRKRLVANHGFHVTVFSVTTTTAPPPKPKTATTTTTLDLVDIFELHVDISGLVNPNAPFVERVGVTMRESLPILRQAISGMDPRPTTLVVDIFGTDAMKIADEFDMSKYVFITTSAWVFAFCVFVPTLDEEVEGEYVDLQEPVKIPGCNPVRVEDLVDPMLDRRSQQYFEFLRTCKGYLSFDGVLVNTWEDLERPTLKAFRENGLLKQVLKAPIYPIGPLVKRVGSSGSRSELLEWLDLQPCQSVLYVSFGSAGTVSAKQITELAWGLELSQQRFIWVLRPPMEKGGPHDLNDCDDVANYLPDGFLSRTHKLGLVVPTWAPQEEILGHRSVGGFLSHGGWNSSLESILSGVPMIMWPLYAEQKMNAAMVVEELEVGVRVVQLSEVVEREEIAKFVRMVIEGREGKAMRTRVKELQCSGERALIENGSSYESMCELARDFEMKLKY
notes: cDNA in pMAL-c2X (MBP fusion), expressed in E. coli Novablue (DE3), purified
Q: For B1, which Km [1] is on record?
A: 94.99 µM

Q: And the Km [2]?
A: 71.81 µM

Q: And the Km (purified protein)?
A: 113.15 µM
